The target in this assay is human LTBR endogenously expressed on cells (HepG2, A549, A375, HCC1187, RPMI-7951, primary human breast CAFs) (human) (UniProt P36941). As to the kind of experiment: cell-based or functional assay.

The values below come from patent US20260176336A1.

human LTBR endogenously expressed on cells (HepG2, A549, A375, HCC1187, RPMI-7951, primary human breast CAFs) (human), sequence (P36941 31-435): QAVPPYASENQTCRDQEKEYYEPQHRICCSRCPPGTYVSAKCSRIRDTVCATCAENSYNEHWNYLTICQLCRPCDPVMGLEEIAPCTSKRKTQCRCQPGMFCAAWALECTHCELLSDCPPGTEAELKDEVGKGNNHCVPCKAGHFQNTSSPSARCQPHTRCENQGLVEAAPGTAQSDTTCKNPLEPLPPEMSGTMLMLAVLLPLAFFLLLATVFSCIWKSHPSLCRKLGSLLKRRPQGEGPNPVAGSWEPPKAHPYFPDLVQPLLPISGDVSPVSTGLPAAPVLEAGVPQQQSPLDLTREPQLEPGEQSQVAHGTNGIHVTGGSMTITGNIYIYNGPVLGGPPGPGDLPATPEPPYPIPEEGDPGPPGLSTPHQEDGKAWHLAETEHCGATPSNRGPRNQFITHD

B1: CBE-11 (antibody, from another filing, human IgG1, V domains shown)
VH: EVQLVESGGGLVKPGGSLRLSCAASGFTFSDYYMYWFRQAPGKGLEWVATISDGGSYTYYPDSVKGRFTISRDNAKNSLYLQMSSLRAEDTAVYYCAREENGNFYYFDYWGQGTTVTVSS
VL: DIQMTQSPSSLSASVGDRVTITCKAGQDIKSYLSWYQQKPGKAPKLLIYYATRLADGVPSRFSGSGSGTDYTLTISSLQPEDFATYYCLQHGESPWTFGGGTKLEIKR
With B1, the CCL19 upregulation, HCC1187:CAF Co-culture EC50 was 0.26 nM; the CCL19 upregulation, HCC1187 Monoculture EC50 is 0.23 nM; the HCC1187 monoculture assay CCL19 read-out EC50 was determined as 0.239 nM; the HCC-1187:RPMI7951 (cis-activation) co-culture assay CCL5 read-out EC50 was found to be 0.13 nM. The HCC-1187:RPMI7951 (trans-activation) co-culture assay, CCL19 Read-out EC50 came to 0.084 nM; the HepG2 Reporter assay, HepG2:FAP-CHO-K1 Co-culture EC50 was 0.046 nM; the HepG2 Reporter assay, HepG2 Monoculture EC50 was determined as 0.033 nM; the ICAM1 upregulation in CAFs monoculture assay EC50 was 0.044 nM. The chemokine (CCL5) induction in RPMI-7951 EC50 was 0.38 nM.
